In patent US20240309103A1 (Regeneron, published 2024):

Tests used:
[1] = target: T1, mNPR1-mFc (mouse); experiment: SPR Biacore, mAb captured by anti-human Fc, 37C
T1 construct: also called mouse NPR1 extracellular domain expressed with a C-terminal mouse IgG2a
T1 chain: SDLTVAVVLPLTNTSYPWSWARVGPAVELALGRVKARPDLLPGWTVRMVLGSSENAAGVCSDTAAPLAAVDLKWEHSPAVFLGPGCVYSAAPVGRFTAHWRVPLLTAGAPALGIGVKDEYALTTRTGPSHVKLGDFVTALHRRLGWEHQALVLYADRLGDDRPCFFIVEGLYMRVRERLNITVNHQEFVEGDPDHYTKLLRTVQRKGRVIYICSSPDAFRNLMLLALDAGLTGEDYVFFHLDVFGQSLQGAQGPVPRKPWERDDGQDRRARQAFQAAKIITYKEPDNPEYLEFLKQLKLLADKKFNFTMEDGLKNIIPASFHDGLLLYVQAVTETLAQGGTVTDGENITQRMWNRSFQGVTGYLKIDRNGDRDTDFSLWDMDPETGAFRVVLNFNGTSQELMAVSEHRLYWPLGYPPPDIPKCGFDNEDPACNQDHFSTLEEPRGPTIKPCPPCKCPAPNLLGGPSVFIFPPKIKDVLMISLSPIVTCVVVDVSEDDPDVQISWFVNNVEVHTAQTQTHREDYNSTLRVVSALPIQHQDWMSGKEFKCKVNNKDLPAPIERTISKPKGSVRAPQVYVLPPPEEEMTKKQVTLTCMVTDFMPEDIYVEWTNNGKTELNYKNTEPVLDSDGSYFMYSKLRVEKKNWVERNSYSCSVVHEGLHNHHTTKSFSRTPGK
Protocol: (§1) Equilibrium dissociation constant (KD) for different NPR1 reagents binding to purified anti-NPR1 monoclonal antibodies (mAbs) were determined using a real-time surface plasmon resonance based Biacore 4000 biosensor. All binding studies were performed in 10 mM HEPES, 150 mM NaCl, 3 mM EDTA, and 0.05% v/v Surfactant Tween-20, pH 7.4 (HBS-ET) running buffer at 25° C. and 37° C. The Biacore CM5 sensor chip surface was first derivatized by amine coupling with either mouse anti-human Fc specific mAb (GE Healthcare, #BR100839) or goat anti-human Fcy specific polyclonal antibody (Jackson ImmunoResearch Laboratories, #BR-1008-39) to capture anti-NPR1 mAbs.

[2] = target: T2, mfNPR1-mFc:hBNP complex (monkey; human, UniProt P16860 103-134); experiment: SPR Biacore, mAb captured by anti-human Fc, 37C
T2 construct: Receptor-Fc pre-complexed with 10-fold hBNP
Protocol: as §1

[3] = target: T1, mNPR1-mFc; experiment: SPR Biacore, mAb captured by anti-human Fc, 25C
Protocol: as §1

[4] = target: T3, human NPR1 on HEK293/hNPR1.myc.DDK cells with 10 nM hANP (NPR1-ANP complex) (human, UniProt P01160 124-151); experiment: ECL cell binding (MSD), +10 nM hANP
T3 construct: also called NPR1-ANP Complex on the Cell Surface
T3 sequence: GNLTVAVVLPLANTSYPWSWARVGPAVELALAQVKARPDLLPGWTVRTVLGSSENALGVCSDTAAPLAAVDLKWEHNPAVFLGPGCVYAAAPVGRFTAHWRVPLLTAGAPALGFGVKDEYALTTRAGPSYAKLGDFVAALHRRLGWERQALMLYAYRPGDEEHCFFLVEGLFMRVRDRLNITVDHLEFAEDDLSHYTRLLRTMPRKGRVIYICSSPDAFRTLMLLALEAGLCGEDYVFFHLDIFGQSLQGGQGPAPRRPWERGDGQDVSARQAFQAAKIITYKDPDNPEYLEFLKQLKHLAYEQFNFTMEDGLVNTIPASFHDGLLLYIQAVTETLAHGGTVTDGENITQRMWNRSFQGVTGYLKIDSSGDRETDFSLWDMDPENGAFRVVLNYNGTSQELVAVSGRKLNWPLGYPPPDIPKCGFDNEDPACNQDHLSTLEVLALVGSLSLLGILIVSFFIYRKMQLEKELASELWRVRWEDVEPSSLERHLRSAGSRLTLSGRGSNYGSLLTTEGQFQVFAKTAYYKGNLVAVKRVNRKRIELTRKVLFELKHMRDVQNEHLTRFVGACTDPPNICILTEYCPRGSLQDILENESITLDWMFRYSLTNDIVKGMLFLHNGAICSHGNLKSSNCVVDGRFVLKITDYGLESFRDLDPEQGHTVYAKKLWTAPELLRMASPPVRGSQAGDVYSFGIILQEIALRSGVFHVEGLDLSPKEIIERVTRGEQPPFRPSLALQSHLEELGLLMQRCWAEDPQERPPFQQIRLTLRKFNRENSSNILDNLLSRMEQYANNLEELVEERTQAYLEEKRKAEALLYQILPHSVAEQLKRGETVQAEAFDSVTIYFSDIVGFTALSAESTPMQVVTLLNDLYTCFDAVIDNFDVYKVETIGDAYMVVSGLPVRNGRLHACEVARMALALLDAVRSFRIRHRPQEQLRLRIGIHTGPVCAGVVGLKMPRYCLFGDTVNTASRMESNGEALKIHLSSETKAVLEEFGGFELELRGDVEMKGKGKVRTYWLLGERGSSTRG
T3 sequence (peptide): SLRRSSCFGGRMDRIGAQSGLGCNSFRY
Protocol: All cells were washed once with 1×PBS with Ca²⁺/Mg²⁺ and counted with a Cellometer™ Auto T4 cell counter (Nexcelom Bioscience). Approximately 2.0×10⁴ HEK293/hNPR1.myc.DDK or HEK293 cells were seeded separately onto 96-well carbon electrode plates (MULTI-ARRAY high bind plate, Meso Scale Discovery (MSD, Rockville, MD)) and incubated for 1 hour (h) at 37° C. Nonspecific binding sites were blocked by 2% BSA (w/v) in 1×PBS with Ca²⁺/Mg²⁺for 1 h at room temperature (RT). HEK293/hNPR1.myc. […] The plate-bound antibodies were detected with SULFO-TAG™-conjugated goat polyclonal anti-human IgG antibody specific for heavy and light chains (Jackson Immunoresearch, West Grove, PA) for 1 h, RT.
After washes, plates were developed with Read Buffer (MSD, Rockville, MD) according to manufacturer's recommended procedure and luminescent signals were recorded with a SECTOR Imager 600 (MSD, Rockville, MD). Luminescence intensity, measured in relative light units (RLU), was recorded to indicate the binding intensity of each antibody at the range of concentrations.
In addition, direct binding signals (RLU) were analyzed as a function of the antibody concentration and data were fitted with a sigmoidal (four-parameter logistic) dose-response model using R statistical package (open source).

B1: mAb25502 (antibody, human IgG4, V domains shown)
VH: QLQLQESGPGLVKPSETLSLTCTVSGGSISSSSYYWGWIRQPPGKGLEWIGSIYYSGSPYYIPSLKSRVTISVDTSKNQFSLKLSSVTAADTAMYYCARQGRGIARAGPFDYWGQGTLVTVSS
VL: DIQMTQSPSSLSASVGDRVTITCRASQGISNYLAWYQEKPGKVPKLLIYAASTLQSGVPSRFSGSGSGTDFTLTITSLQSEDVATYYCQKYNSAPPWTFGQGTKVEIK
- 100 nM Ag Bound (RU) [1]: 1 RU
- binding result [1]: no binding (tested: 100 nM)
- 100 nM Ag Bound (RU) [2]: 139 RU
- Kd [2]: 5.65 nM
- koff [2]: 0.000481 s⁻¹
- kon [2]: 85200 M⁻¹ s⁻¹
- t½ [2]: 24 min
- 100 nM Ag Bound (RU) [3]: 1 RU
- Ratio at 3.7 nM Ab concentration of Cell Binding Signal (RLU) to HEK293/hNPR1.myc.DKK relative to parental HEK293 [4]: 14 ratio
